Like-named read-outs stand apart in the source and are kept apart here.

Assay [1] deals with T1, dengue type 4 virus (DENV-4), strain 814669, virions (dengue type 4 virus, UniProt P09866 280-774; P09866 114-279). The assay is described as follows: cell-based or functional assay.
The target in assay [2] is T2, DENV-4 E glycoprotein (dengue type 4 virus, UniProt P09866 280-774).
T2 construct: also called vDENV-4 E product
The assay is described as follows: radioimmunoprecipitation.

For assay [3], the target named is T3, dengue type 3 virus (DENV-3), strain H87, virions (dengue type 3 virus, UniProt P27915 281-773; P27915 115-280). The experiment in a line: ELISA, virion-coated plate, Fab from ~300 µg/ml.
Assay [4] addresses T1, dengue type 4 virus (DENV-4), strain …. The experiment in a line: ELISA, virion-coated plate, Fab from ~300 µg/ml. A general note: An ELISA detects its analyte on a solid surface through an enzyme-linked reagent.
Assay [5] concerns the target T4, dengue type 2 virus (DENV-2), prototype New Guinea C strain, virions (dengue type 2 virus, UniProt P14340 281-775; P14340 115-280). The experiment in a line: ELISA, virion-coated plate, Fab from ~300 µg/ml.
Assay [6] concerns the target T5, dengue type 1 virus (DENV-1), Western Pacific strain, virions (dengue type 1 virus, UniProt P17763 281-775; P17763 115-280). The assay is described as follows: ELISA, virion-coated plate, Fab from ~300 µg/ml.
Assay [7] concerns the target T2, DENV-4 E glycoprotein. The experiment in a line: radioimmunoprecipitation of E expressed alone by recombinant vaccinia virus.
The target of assay [8] is T3, dengue type 3 virus (DENV-3), strain …. The experiment in a line: ELISA, virion-coated plate, Fab from ~140 µg/ml.
Assay [9] addresses T4, dengue type 2 virus (DENV-2), prototype …. The assay is described as follows: ELISA, virion-coated plate, Fab from ~140 µg/ml.
Assay [10] concerns the target T5, dengue type 1 virus (DENV-1), Western …. The experiment in a line: ELISA, virion-coated plate, Fab from ~140 µg/ml.
Assay [11] concerns the target T3, dengue type 3 virus (DENV-3), strain …. The assay is described as follows: ELISA, virion-coated plate.
The target of assay [12] is T4, dengue type 2 virus (DENV-2), prototype …. The assay is described as follows: ELISA, virion-coated plate.
The target in assay [13] is T5, dengue type 1 virus (DENV-1), Western …. The assay is described as follows: ELISA, virion-coated plate.
For assay [14], the target named is T6, DENV-2 antigenic variant NGB-V2 (dengue type 2 virus). The experiment in a line: ELISA Kd against parental DENV-2 NGB.
The target of assay [15] is T7, DENV-2 antigenic variant NGB-V1 (dengue type 2 virus). The experiment in a line: ELISA Kd against parental DENV-2 NGB.
Assay [16] concerns the target T1, dengue type 4 virus (DENV-4), strain …. The experiment in a line: ELISA Kd.
The target in assay [17] is T8, DENV-4 mutant containing Leu107Phe (dengue type 4 virus, UniProt P09866 280-774).
T8 construct: Mutant virus; also called mutant Leu107Phe
The assay is described as follows: ELISA Kd.

Assay [18] concerns the target T1, dengue type 4 virus (DENV-4), strain …. The assay is described as follows: ELISA, virion-coated plate, Fab from ~140 µg/ml.
For assay [19], the target named is T3, dengue type 3 virus (DENV-3), strain …. The assay is described as follows: cell-based or functional assay.
Assay [20] concerns the target T1, dengue type 4 virus (DENV-4), strain …. The experiment in a line: cell-based or functional assay. This is another data set of the same source.
Assay [21] deals with T4, dengue type 2 virus (DENV-2), prototype …. The experiment in a line: cell-based or functional assay.
Assay [22] addresses T5, dengue type 1 virus (DENV-1), Western …. The experiment in a line: cell-based or functional assay.
Assay [23] deals with T6, DENV-2 antigenic variant NGB-V2.
The target of assay [24] is T7, DENV-2 antigenic variant NGB-V1.
Assay [25] concerns the target DENV-2 NGB-V2/DENV-4 chimera (dengue type 2 virus). The assay is described as follows: cell-based or functional assay.
Assay [26] concerns the target WNV/DENV-4 chimera (West Nile virus). The assay is described as follows: cell-based or functional assay.
Assay [27] addresses DENV-2 New Guinea C (NGC) parent virus, mouse-adapted (dengue type 2 virus, UniProt P14340 281-775). The experiment in a line: cell-based or functional assay.
Assay [28] addresses DENV-2 NGB-V1/DENV-4 chimera (dengue type 2 virus). The assay is described as follows: cell-based or functional assay.
Assay [29] addresses T1, dengue type 4 virus (DENV-4), strain …. The assay is described as follows: cell-based or functional assay. The source holds these as a separate data set.
Assay [30] deals with T6, DENV-2 antigenic variant NGB-V2. The assay is described as follows: cell-based or functional assay.
Assay [31] addresses T8, DENV-4 mutant containing Leu107Phe. The experiment in a line: cell-based or functional assay.
Assay [32] deals with chimeric DENV-2 (NGB-P)/DENV-4 (dengue type 2 virus). The assay is described as follows: cell-based or functional assay.
For assay [33], the target named is T7, DENV-2 antigenic variant NGB-V1. The experiment in a line: cell-based or functional assay.
In assay [34] the target is Japanese encephalitis virus (JEV) vaccine strain SA14-14-2 (Japanese encephalitis virus). The assay is described as follows: cell-based or functional assay.
For assay [35], the target named is DENV-1 strain Hawaii (dengue type 1 virus). The assay is described as follows: cell-based or functional assay.
In assay [36] the target is T3, dengue type 3 virus (DENV-3), strain …. The assay is described as follows: cell-based or functional assay. This is another data set of the same source.
In assay [37] the target is DENV-2 New Guinea B (NGB) parent virus (dengue type 2 virus). The assay is described as follows: cell-based or functional assay.
In assay [38] the target is T9, Langat virus (LGTV) strain TP 21 (Langat virus, UniProt P29837 281-776).
T9 sequence: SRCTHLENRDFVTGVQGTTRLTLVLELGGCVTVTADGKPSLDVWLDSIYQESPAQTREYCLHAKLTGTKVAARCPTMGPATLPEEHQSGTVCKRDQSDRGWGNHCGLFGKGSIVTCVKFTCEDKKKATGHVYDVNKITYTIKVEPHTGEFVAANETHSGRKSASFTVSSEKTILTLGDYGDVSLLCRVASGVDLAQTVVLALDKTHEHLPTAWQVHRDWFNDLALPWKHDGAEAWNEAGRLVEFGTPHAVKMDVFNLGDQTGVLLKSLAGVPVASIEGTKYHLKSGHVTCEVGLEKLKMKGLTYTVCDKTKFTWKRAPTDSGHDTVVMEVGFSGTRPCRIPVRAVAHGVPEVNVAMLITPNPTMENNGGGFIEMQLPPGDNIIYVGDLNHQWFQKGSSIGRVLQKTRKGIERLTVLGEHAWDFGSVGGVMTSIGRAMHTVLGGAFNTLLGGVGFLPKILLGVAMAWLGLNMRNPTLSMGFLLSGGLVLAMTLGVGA
The assay is described as follows: cell-based or functional assay.

In assay [39] the target is T3, dengue type 3 virus (DENV-3), strain ….
Assay [40] deals with T1, dengue type 4 virus (DENV-4), strain ….
Assay [41] deals with T4, dengue type 2 virus (DENV-2), prototype ….
Assay [42] addresses T5, dengue type 1 virus (DENV-1), Western ….

B1: chimpanzee Fab 5A7 (Fab, V domains shown)
VH: EVQLLESGGGLVQPGGSLRLSCAASGVTFSSYWMHWVRQAPGKGLEWVSRINSDGSSTNYADSVEGRFTISRDNAKNTLYLQMNSLRAEDTAVYYCSRGGLWDWSPRRIEETKTPFDYWGQGTLVTVSS
VL: ELTQGPATLSLSPGERATLSCRAGQSLDSSLLSWYQQKPGQAPRLLMYDASTRAPGVPARFSGSGSGTDFTLTISSLQPEDFAVYYCQQHYNLPRTFGQGTKLEIKR
B1: the “PRNT50 titer” value in [1] was > 200 µg/mL. Further, in [2], the binding result is on record as “no binding”. In addition, the “ELISA titer of Fab binding” value in assay [3] is 2.51 log10 of reciprocal dilution; in assay [4] it was 3.41 log10 of reciprocal dilution; in assay [5], 2.51 log10 of reciprocal dilution; in assay [6], 2.51 log10 of reciprocal dilution.

B2: chimpanzee Fab 5H2 (Fab, V domains shown)
VH: EVQLLESGPGLVKPSETLSLTCTVSGGSISDFYWSWLRQSPGKGLEWIGYAHSRVSAYYNPSLKSRVTISVDTSKNQLSLRLSAVTAADTALYYCARQGTGTTGVSEDPFDLWGQGTKVIVSL
VL: ELQMTQSPSSLSASVGDRVTITCRASQDISIRLNWYQQKPGKAPKLLIYDASTLESGVPSRFSGSGSGTDFTLTISSLQPEDFATYYCQQFNSYPLTFGGGTKVEIKR
Turning to B2, the “ELISA titer of Fab binding” value in [3], in [5], in assay [6], in [8], in [9] and in [10] was < 1 log10 of reciprocal dilution throughout. Further, the binding result in [7] is reported as “binds”; in assay [11] it was “no binding”; in [12], “no binding”; in assay [13], “no binding”.

B3: chimpanzee Fab 1A5 (Fab, V domains shown)
VH: EVQLLESGGGLVQPGGSRRLSCAASGFTISDNVMHWVRQAPGKGLEWVALIYSADTTHYADSVKGRFTISRDNSKNTLYLQMDSLRPEDTAVYYCAREYCTGDTCFAHFDYWGQGTLVSVSS
VL: ELQMTQSPSSVSASVGDTVTIACRASQSITNYLSWYQQKPGKAPKLLIYHASTLQSGIPSRFSGSGSGTDFTLTISSLQPDDFATYYCHYGYGTHTFGQGTKLEIKR
For B3, the “Affinity Reduction (fold)” value came out at 80.3 fold in assay [14] and 1.6 fold in assay [15]. Further, the Kd in [16] stood at 650 pM; in [17], 3070 pM; in assay [23], 37800 pM; in assay [24], 750 pM. Further, the “ELISA titer of Fab binding” value in [8] is 3.8 log10 of reciprocal dilution; in assay [18], 3.8 log10 of reciprocal dilution; in [9] it was 3.8 log10 of reciprocal dilution; in assay [10], 4.1 log10 of reciprocal dilution. The “PRNT50 titer” value in assay [19] was 3.49 µg/mL; in assay [20] it was 4.23 µg/mL; in assay [21], 0.77 µg/mL; in assay [22], 0.49 µg/mL; in [25], > 70 µg/mL; in assay [26], 4.8 µg/mL. In addition, the PRNT50 titer in [27] is 0.89 µg/mL; in assay [28], 31.7 µg/mL; in [29] it was 4.3 µg/mL; in assay [30], > 70 µg/mL; in [31], ~50 µg/mL; in assay [32], 0.64 µg/mL. This molecule also showed a PRNT50 titer in assay [33] of 12 µg/mL.

B4: humanized IgG1 1A5 (antibody, V domains shown)
VH: EVQLLESGGGLVQPGGSRRLSCAASGFTISDNVMHWVRQAPGKGLEWVALIYSADTTHYADSVKGRFTISRDNSKNTLYLQMDSLRPEDTAVYYCAREYCTGDTCFAHFDYWGQGTLVSVSS
VL: ELQMTQSPSSVSASVGDTVTIACRASQSITNYLSWYQQKPGKAPKLLIYHASTLQSGIPSRFSGSGSGTDFTLTISSLQPDDFATYYCHYGYGTHTFGQGTKLEIKR
For B4, the PRNT50 titer in [26] is ~3.8 µg/mL; in [34], 21 µg/mL; in [35], 0.48 µg/mL; in assay [36], 3.2 µg/mL; in [37] it was 0.95 µg/mL; in [29], 4.3 µg/mL. The molecule also showed a PRNT50 titer in assay [38] of 28 µg/mL. Further, the Kd in assay [39] came to 670 pM; in [40], 820 pM; in assay [41], 600 pM; in [42] it was 500 pM.

Usually Kd stands for the concentration at which binding is half-saturated. Higher therefore signals a looser complex.

For the origin of these results see US20070134256A1 (US Dept. of Health and Human Services, published 2007).
